Consider three substances from article PMC6191154.

In general, Kd refers to the equilibrium constant for the complex coming apart.

The assay has as its target labelled Vip3Aa protoxin (MST) (Bacillus thuringiensis (strain Bt9816C)). Description: MST; 10 nM labelled Vip3Aa kept constant, Sf-SR-C protein fragments titrated 0.3 nM to 10 μM, 20 min at RT; 25 mM Hepes pH 7.5, 150 mM NaCl, 0.05% Tween-20; 25 °C; fitted to the Hill equation; three independent experiments.
Substance “GST-SR-F-2 (Sf-SR-C aa 139-320, the MAM domain) (domain or fragment)” came in with an equilibrium dissociation constant (Kd) of 463 nM.
Substance “Sf-CCP (CCP domain of Sf-SR-C (aa 20-80) with a His-tag) (domain or fragment)” had a Kd of 2190 nM.
In turn, “extracellular sequence of Sf-SR-C (aa 20-558) with a glutathione-S-transferase tag (GST-SR-C-N) (domain or fragment)” yielded a dissociation constant (Kd) of 190 nM.
